Source: US20160060325A1 (POMONA RICERCA S R L, published 2016)

What was measured:
[1] = target: HA2 subunit of hemagglutinin (individual subunit, Western blot) (influenza A virus H1N1, strain A/PR/8/34, UniProt P03452 344-565); assay: Western blot
[2] = target: hemagglutinin (HA) of influenza A virus H1N1, strain A/PR/8/34 (influenza A virus H1N1, strain A/PR/8/34, UniProt P03452 18-565); assay: cell-based or functional assay
[3] = target: hemagglutinin (HA) of influenza A virus H3N2, strain A/Victoria/3/75 (influenza A virus H3N2, strain …, UniProt P03435 17-567); assay: cell-based or functional assay
Sequence of hemagglutinin (HA) of influenza A virus H3N2, strain A/Victoria/3/75 (P03435 17-567 limits assumed): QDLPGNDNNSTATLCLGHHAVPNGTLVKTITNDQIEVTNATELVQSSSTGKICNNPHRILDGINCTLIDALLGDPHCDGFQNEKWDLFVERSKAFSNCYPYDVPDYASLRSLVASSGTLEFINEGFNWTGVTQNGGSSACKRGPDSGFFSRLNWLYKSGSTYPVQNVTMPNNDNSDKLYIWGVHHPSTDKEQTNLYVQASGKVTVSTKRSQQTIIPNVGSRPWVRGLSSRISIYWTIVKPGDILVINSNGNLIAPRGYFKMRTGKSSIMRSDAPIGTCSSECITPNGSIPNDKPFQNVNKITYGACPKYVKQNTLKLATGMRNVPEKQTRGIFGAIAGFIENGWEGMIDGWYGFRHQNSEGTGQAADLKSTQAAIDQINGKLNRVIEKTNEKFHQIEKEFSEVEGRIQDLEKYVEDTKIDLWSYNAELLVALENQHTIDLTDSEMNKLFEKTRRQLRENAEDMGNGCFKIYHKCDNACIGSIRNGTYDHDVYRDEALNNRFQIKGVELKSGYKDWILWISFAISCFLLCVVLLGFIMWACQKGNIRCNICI

[4] = target: hemagglutinin (HA) of influenza A virus H1N1, strain A/Malaya/302/54 (influenza A virus H1N1, strain …); assay: cell-based or functional assay
[5] = target: hemagglutinin (HA) of influenza A virus H3N2, strain A/PC/1/73 (influenza A virus H3N2, strain A/PC/1/73, UniProt Q1PUD9 17-566); assay: cell-based or functional assay
Sequence of hemagglutinin (HA) of influenza A virus H3N2, strain A/PC/1/73 (Q1PUD9 17-566): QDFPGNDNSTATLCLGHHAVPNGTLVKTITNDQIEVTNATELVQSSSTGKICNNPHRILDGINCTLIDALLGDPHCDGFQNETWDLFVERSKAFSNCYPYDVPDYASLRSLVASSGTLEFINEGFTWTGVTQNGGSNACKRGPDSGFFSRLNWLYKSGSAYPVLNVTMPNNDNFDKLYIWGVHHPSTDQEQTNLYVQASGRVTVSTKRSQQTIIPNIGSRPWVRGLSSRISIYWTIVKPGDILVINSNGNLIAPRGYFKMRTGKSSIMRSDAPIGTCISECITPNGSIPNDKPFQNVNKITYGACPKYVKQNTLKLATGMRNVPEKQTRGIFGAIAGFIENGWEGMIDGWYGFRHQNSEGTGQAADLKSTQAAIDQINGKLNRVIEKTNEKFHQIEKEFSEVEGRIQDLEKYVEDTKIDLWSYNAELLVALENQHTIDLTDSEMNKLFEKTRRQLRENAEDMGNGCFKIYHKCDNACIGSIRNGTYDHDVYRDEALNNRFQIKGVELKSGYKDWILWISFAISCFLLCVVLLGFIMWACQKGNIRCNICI

Sequence of hemagglutinin (HA) of influenza A virus H1N1, strain A/PR/8/34 (P03452 18-565 limits assumed): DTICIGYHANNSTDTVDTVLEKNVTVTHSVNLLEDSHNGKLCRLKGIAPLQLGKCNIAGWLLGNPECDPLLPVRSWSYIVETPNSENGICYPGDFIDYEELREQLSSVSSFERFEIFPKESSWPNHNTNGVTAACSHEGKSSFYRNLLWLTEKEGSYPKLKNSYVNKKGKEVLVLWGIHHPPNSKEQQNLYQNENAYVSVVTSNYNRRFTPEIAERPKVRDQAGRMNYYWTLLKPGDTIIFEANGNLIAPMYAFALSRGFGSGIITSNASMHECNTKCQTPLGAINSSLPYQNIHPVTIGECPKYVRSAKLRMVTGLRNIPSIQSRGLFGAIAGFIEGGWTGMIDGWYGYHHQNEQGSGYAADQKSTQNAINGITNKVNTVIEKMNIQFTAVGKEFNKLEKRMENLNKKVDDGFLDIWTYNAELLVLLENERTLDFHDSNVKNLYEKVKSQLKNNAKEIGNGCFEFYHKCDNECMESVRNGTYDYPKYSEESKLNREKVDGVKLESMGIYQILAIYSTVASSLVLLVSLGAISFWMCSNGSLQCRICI
Sequence of HA2 subunit of hemagglutinin (individual subunit, Western blot) (P03452 344-565 limits assumed): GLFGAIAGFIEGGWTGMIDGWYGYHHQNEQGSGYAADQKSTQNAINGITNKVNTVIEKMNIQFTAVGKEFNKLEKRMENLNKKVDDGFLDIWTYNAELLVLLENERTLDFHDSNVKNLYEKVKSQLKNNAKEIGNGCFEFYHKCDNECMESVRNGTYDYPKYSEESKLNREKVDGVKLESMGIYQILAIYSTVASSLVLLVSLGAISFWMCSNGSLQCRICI

B1: Fab28 (monoclonal antibody produced by clone INF28, human Fab fragment) (Fab, V domains shown)
VH: LEESGGGVVQPGRSLRLSCAASGFPFSSYGMHWVRQAPGKGLEWVAGVSYDGSYKYYADSVKGRFTISRDSSKSTLYLQMNSLRPEDTAVYYCARPSAIFGIYIILNGLDVWGQGTTVTVSS
VL: ELTQSPSSVSASVGDRVTITCRATQGISSWLAWYQQKPGKPPKLLIFGASSLQSGVPSRFSGSGSGTDFTLTISSLQPEDFATYFCQQAHSFPLTFGGGTKVEIK
- binding result [1]: no binding
- IC50, neutralization by plaque reduction assay, H1N1 A/PR/8/34 [2]: < 2.5 µg/mL
- IC50, neutralization by plaque reduction assay, H3N2 A/Victoria/3/75 [3]: ~20 µg/mL
- IC50, neutralization by plaque reduction assay, H1N1 A/Malaya/302/54 [4]: < 2.5 µg/mL
- IC50, neutralization by plaque reduction assay, H3N2 A/Port Chalmers/1/73 [5]: ~20 µg/mL
